Measurements published in patent publication US20240182536A1 (MURAL ONCOLOGY, published 2024).

What was measured:
Assay in all cases: cell-based or functional assay
[1] = target: T1, IL-18 receptor (IL-18Rα and IL-18Rβ) (UniProt Q13478 19-541; O95256 20-599, limits assumed)
T1 sequence (looked up) 1: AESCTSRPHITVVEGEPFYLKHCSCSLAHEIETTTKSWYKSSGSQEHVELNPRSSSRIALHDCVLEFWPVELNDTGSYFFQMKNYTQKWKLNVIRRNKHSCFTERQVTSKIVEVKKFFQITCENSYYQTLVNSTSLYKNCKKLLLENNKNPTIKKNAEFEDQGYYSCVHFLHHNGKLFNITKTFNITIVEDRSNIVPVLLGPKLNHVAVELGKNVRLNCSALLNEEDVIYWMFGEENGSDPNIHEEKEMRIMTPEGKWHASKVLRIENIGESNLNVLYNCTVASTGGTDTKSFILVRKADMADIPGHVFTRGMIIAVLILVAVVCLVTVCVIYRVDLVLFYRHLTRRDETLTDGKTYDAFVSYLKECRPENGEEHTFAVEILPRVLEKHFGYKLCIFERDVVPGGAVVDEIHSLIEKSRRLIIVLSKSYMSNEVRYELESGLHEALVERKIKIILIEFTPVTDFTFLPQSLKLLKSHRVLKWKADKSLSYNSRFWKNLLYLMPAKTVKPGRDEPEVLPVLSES
T1 sequence (looked up) 2: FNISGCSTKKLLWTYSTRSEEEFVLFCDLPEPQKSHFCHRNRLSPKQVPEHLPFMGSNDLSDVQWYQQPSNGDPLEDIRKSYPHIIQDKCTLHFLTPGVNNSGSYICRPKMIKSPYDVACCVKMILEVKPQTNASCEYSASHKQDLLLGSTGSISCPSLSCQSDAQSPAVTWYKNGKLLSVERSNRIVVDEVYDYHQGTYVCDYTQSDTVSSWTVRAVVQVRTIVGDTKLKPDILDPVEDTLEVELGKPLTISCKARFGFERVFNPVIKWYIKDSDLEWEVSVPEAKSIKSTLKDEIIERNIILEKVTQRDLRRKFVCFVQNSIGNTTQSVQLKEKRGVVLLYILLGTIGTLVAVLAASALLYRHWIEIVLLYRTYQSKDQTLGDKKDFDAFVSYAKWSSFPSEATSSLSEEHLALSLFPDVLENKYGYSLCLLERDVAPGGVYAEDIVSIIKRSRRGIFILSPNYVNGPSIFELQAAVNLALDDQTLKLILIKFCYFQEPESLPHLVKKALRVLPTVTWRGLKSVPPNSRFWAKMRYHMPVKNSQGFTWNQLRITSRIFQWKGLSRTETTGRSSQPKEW

[2] = target: T1, IL-18 receptor (IL-18Rα and IL-18Rβ); remark: listed apart in the source
[3] = target: T2, interleukin 18 binding protein (IL-18BP) (UniProt O95998 31-194)
T2 sequence (looked up): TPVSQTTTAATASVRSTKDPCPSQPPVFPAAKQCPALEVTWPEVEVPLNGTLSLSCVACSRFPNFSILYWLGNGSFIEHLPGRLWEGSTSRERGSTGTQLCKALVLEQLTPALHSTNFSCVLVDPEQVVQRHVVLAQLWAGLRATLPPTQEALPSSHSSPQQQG

[4] = target: T3, human IL-18 binding protein (IL-18BP) (human, UniProt O95998 31-194)
T3 sequence (looked up): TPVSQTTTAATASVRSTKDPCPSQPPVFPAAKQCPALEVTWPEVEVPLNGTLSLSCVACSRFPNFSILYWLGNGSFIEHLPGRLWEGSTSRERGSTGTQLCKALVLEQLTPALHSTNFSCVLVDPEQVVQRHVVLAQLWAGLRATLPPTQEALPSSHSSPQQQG

[5] = target: T4, IL-18 receptors on HEK-Blue IL-18 reporter cells (InvivoGen) (UniProt Q13478 19-541; O95256 20-599)
T4 sequence (looked up) 1: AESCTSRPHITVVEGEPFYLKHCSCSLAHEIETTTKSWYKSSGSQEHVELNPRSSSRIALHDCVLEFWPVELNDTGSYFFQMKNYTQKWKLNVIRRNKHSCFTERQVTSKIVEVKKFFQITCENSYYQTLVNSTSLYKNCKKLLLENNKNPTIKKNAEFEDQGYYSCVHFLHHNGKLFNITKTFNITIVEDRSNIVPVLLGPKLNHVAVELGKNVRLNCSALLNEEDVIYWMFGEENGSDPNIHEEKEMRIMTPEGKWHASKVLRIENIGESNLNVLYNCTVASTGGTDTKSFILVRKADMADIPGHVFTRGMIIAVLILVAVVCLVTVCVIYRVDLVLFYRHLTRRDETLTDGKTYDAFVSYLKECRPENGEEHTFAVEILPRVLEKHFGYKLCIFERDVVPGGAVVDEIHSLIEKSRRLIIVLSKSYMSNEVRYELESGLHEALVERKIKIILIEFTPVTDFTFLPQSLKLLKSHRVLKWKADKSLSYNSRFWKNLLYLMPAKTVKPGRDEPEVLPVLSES
T4 sequence (looked up) 2: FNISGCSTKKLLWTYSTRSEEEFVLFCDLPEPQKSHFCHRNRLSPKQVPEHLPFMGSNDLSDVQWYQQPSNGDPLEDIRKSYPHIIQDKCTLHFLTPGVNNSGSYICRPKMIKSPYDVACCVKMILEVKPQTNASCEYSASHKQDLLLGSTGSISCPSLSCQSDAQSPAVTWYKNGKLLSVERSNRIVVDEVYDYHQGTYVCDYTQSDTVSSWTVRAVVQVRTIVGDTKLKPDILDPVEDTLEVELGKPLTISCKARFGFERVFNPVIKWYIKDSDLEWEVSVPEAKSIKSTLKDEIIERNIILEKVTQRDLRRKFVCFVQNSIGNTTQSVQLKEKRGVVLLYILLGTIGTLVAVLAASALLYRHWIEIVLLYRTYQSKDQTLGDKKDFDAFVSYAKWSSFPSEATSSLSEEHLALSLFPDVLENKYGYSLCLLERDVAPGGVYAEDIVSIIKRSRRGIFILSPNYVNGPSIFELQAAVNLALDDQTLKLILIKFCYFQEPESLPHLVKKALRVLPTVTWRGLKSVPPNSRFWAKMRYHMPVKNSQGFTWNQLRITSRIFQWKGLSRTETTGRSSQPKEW

Row | Binder | EC50 (pM), PBMC IFN gamma assay, average [1] | EC50 (pM), PBMC IFN gamma assay, run 1 [1] | EC50 (pM), PBMC IFN gamma assay, run 2 [1] | EC50 (pM), PBMC IFN gamma assay, run 3 [1] | PBMC IFN gamma EC50 relative to WT-IL18, average [1] | PBMC IFN gamma EC50 relative to WT-IL18, run 1 [1] | PBMC IFN gamma EC50 relative to WT-IL18, run 2 [1] | PBMC IFN gamma EC50 relative to WT-IL18, run 3 [1] | EC50 (pM) - BP, HEK-blue re-screening [2] | EC50 (pM) + 100 nM BP, HEK-blue re-screening [3] | Ratio (HEK-blue EC50, + 100 nM BP against - BP) [3] | also measured
1 | hIL18 (G3T, E6K, K53S, M60K) - KiH (Fc fusion) YFTKLKSKLSVIRNLNDQVLFIDQGNRPLFEDMTDSDMRDNAPRTIFIISMYSDSQPRGKAVTISVKSEKISTLSSENKIISFKEMNPPDNIKDTKSDIIFFQRSVPGHDNKMQFESSSYEGYFLASEKERDLFKLILKKEDELGDRSIMFTVQNED | 84.4 pM | 90.3 pM | 121 pM | 41.6 pM | 0.6 | 0.37 | 1.15 | 0.26 | – | – | – | –
2 | hIL18 (G3V, K53A, M60K) - KiH (Fc fusion) YFVKLESKLSVIRNLNDQVLFIDQGNRPLFEDMTDSDMRDNAPRTIFIISMYADSQPRGKAVTISVKSEKISTLSSENKIISFKEMNPPDNIKDTKSDIIFFQRSVPGHDNKMQFESSSYEGYFLASEKERDLFKLILKKEDELGDRSIMFTVQNED | 60.6 pM | 47.3 pM | 75 pM | 59.4 pM | 0.43 | 0.2 | 0.71 | 0.37 | – | – | – | –
3 | hIL18 (G3T, K53S, M60K) - KiH (Fc fusion) YFTKLESKLSVIRNLNDQVLFIDQGNRPLFEDMTDSDMRDNAPRTIFIISMYSDSQPRGKAVTISVKSEKISTLSSENKIISFKEMNPPDNIKDTKSDIIFFQRSVPGHDNKMQFESSSYEGYFLASEKERDLFKLILKKEDELGDRSIMFTVQNED | 906 pM | 810 pM | 1120 pM | 784 pM | 6.3 | 3.36 | 10.7 | 4.85 | – | – | – | –
4 | IL-18 variant G3L, E6Q, T63S, N91L, R104T (ligand) YFLKLQSKLSVIRNLNDQVLFIDQGNRPLFEDMTDSDMRDNAPRTIFIISMYKDSQPRGMAVSISVKSEKISTLSSENKIISFKEMNPPDLIKDTKSDIIFFQTSVPGHDNKMQFESSSYEGYFLASEKERDLFKLILKKEDELGDRSIMFTVQNED | – | – | – | – | – | – | – | – | 0.03 pM | 1.67 pM | 55.7 | –
5 | IL-18 variant G3E, E6G, N91M, R104A (ligand) YFEKLGSKLSVIRNLNDQVLFIDQGNRPLFEDMTDSDMRDNAPRTIFIISMYKDSQPRGMAVTISVKSEKISTLSSENKIISFKEMNPPDMIKDTKSDIIFFQASVPGHDNKMQFESSSYEGYFLASEKERDLFKLILKKEDELGDRSIMFTVQNED | – | – | – | – | – | – | – | – | 0.17 pM | 3.49 pM | 20.5 | –
6 | IL-18 variant G3Y, E6N, N91Y, R104S (ligand) YFYKLNSKLSVIRNLNDQVLFIDQGNRPLFEDMTDSDMRDNAPRTIFIISMYKDSQPRGMAVTISVKSEKISTLSSENKIISFKEMNPPDYIKDTKSDIIFFQSSVPGHDNKMQFESSSYEGYFLASEKERDLFKLILKKEDELGDRSIMFTVQNED | – | – | – | – | – | – | – | – | 0.09 pM | 2.89 pM | 32.1 | –
7 | IL-18 variant M60K (ligand) YFGKLESKLSVIRNLNDQVLFIDQGNRPLFEDMTDSDMRDNAPRTIFIISMYKDSQPRGKAVTISVKSEKISTLSSENKIISFKEMNPPDNIKDTKSDIIFFQRSVPGHDNKMQFESSSYEGYFLASEKERDLFKLILKKEDELGDRSIMFTVQNED | – | – | – | – | – | – | – | – | – | – | – | Fold Change (BP/NO BP), 50 nM BP [4]: 1.64 fold; Fold Change (BP/NO BP), 300 nM BP [4]: 9.67 fold; HEK-Blue EC50 pM, +50 nM BP [4]: 4.77 pM; HEK-blue EC50 (pM) + 300 nM BP [4]: 38.3 pM; HEK-Blue EC50 pM, NO BP (50 nM BP run) [5]: 2.9 pM; HEK-Blue EC50 pM, NO BP (300 nM BP run) [5]: 3.96 pM
